Data on one molecule can be found in patent US20160090426A1 (WUHAN YZY BIOPHARMA, published 2016).

The target in assay [1] is CD3 on CD3-positive Jurkat cells. In words: cell-based or functional assay.
In assay [2] the target is T1, EpCAM on EpCAM-positive HCT116 cells (UniProt P16422 24-314, limits assumed).
T1 sequence (looked up): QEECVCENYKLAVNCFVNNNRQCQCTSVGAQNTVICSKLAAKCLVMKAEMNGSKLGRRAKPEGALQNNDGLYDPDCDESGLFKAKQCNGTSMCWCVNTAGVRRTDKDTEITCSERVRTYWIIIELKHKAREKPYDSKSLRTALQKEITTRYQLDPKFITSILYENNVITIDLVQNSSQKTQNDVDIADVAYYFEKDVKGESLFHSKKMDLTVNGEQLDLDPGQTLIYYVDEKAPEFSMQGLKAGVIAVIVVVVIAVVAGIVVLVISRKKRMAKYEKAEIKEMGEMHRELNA
In words: cell-based or functional assay.

The target in assay [3] is T2, CD3 on CD3-positive Jurkat cells.
T2 construct: whole, on cells
In words: flow cytometry on Jurkat cells, KD fitted from mean fluorescence intensity. On the procedure: (§1) Enough HCT116 cells are cultured, digested with 0.25% trypsin and then collected by centrifugation. In the meantime, the bispecific antibody was diluted according to the concentration beginning from 10 ug/ml and ten-fold gradient dilution to obtain twelve concentration gradients for later use.
Enough Jurkat suspension cells were cultured and collected by centrifugation. The same as the steps described in the example forementioned, in the following experimental process, the cells resuspended with 100 ul PBS were detected on an instrument, and the binding affinity KD value of the bispecific antibody and the Jurkat cells was analyzed and calculated according to the mean fluorescence intensity by using software GraphPadPrism 5.0.

The target in assay [4] is T1, EpCAM on EpCAM-positive HCT116 cells. As to the kind of experiment: flow cytometry on HCT116 cells, PE anti-human IgG Fc, KD fitted from mean fluorescence intensity. On the procedure: as §1

B1: EpCAM×CD3 bispecific antibody M701 (bispecific antibody, human IgG1, kappa)
heavy: EVQLLEQSGAELVRPGTSVKISCKASGYAFTNYWLGWVKQRPGHGLEWIGDIFPGSGNIHYNEKFKGKATLTADKSSSTAYMQLSSLTFEDSAVYFCARLRNWDEPMDYWGQGTTVTVSSASTKGPSVFPLAPSSKSTSGGTAALGCLVKDYFPEPVTVSWNSGALTSGVHTFPAVLQSSGLYSLSSVVTVPSSSLGTQTYICNVNHKPSNTKVDKKVEPKSCDKTHTCPPCPAPELLGGPSVFLFPPKPKDTLMISRTPEVTCVVVDVSHEDPEVKFNWYVDGVEVHNAKTKPREEQYNSTYRVVSVLTVLHQDWLNGKEYKCKVSNKALPAPIEKTISKAKGQPREPQVYTLPPSRDELTKNQVSLWCLVKGFYPSDIAVEWESNGQPENNYDTTPPVLDSDGSFFLYSDLTVDKSRWQQGNVFSCSVMHEALHNHYTQKSLSLSPGK
light: ELVMTQSPSSLTVTAGEKVTMSCKSSQSLLNSGNQKNYLTWYQQKPGQPPKLLIYWASTRESGVPDRFTGSGSGTDFTLTISSVQAEDLAVYYCQNDYSYPLTFGAGTKLEIKRTVAAPSVFIFPPSDEQLKSGTASVVCLLNNFYPREAKVQWKVDNALQSGNSQESVTEQDSKDSTYSLSSTLTLSKADYEKHKVYACEVTHQGLSSPVTKSFNRGEC
chain: not shown
notes: Heterodimer of one anti-EpCAM heavy/light chain pair (IgG form) and one anti-CD3 ScFv-Fc; also called EpCAM×CD3 MSBODY; EpCAM×CD3 MSBODY bispecific antibody
With B1, the “ratio of bifluorescence via flow cytometer detection (double positive CFSE-HCT116 / PKH-26-Jurkat cells)” value in assay [1] and in assay [2] was 27.5% throughout. The Kd in assay [3] was determined as 14.3 nM; in assay [4] it was 9.6 nM.

What is called Kd is the constant that tells how readily two partners part at equilibrium. Read a high Kd as lower affinity.
